Results as given in the supplement of paper PMC10567573.
± gives the standard deviation.

Test: protein stability index of a GFP-peptide fusion (GPS, HEK-293T) (PSI 1-6); higher = more stable
Conditions: c terminus: a fixed tail appended
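Note: 24-mer peptide tiles fused after GFP, lentivirally expressed, FACS-sorted into six equal bins by GFP/DsRed ratio, decoded by Illumina sequencing, PSI is the read-weighted mean bin number.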

Sequence	protein stability index (treatment: DMSO)	protein stability index (treatment: MLN4924 1 uM, 8 h)
DDKMVRFWRIDEDYPVQVAPLSNG [WSB1]	3.37 ± 0.34	3.45 ± 0.33
APATTSSWEVVRNPLIASSFSLVK [C22orf31]	2.91 ± 0.24	2.96 ± 0.1
MVSNPVHGLPFLPGTSFKDSTKTA [EFHC1]	3.87 ± 0.24	3.97 ± 0.25
SVDLIKTYKHINEVYYAKKKRRAQ [DYRK1B]	2.85 ± 0.23	3.13 ± 0.14
RDSFMRHRGHCERRHRLGGVGAVP [ZBTB22]	3.22 ± 0.35	3.25 ± 0.4
FQKSLVLISKLPYIHFFHTVLKQI [DENND6A]	2.67 ± 0.72	2.42 ± 0.63
EEEEGTMMKAKGDLEMKEEEEISE [ZBED2]		5.53 ± 0.53
NYDKLSRSIRQYYKKGIIRKPDIS [SPDEF]	2.55 ± 0.21	2.74 ± 0.34
PPPPPSYDPDYIQCPYCQRRFNEN [ZC2HC1A]	5.27 ± 0.34	5.44 ± 0.17
QGKDWGFKKFIRRDFLLDEANGLL [SPOPL]	2.72 ± 0.27	2.31 ± 0.23
PQDLAPQVSAHHRSQESLTSQESE [TBC1D10A]	5.64 ± 0.15	5.56 ± 0.23
TETHVRDWVMWAVNEFSLKGVDFQ [ETS1]	2.81 ± 0.94	2.72 ± 0.78
PAPSRMQMPQGNPLLLSHTLQELL [SNX8]	3.08 ± 0.21	3.1 ± 0.22
VQYLQHLGTENLHLIFSYSVWVLR [VPS39]	3.23 ± 0.39	2.96 ± 0.41
MGKRYFCDYCDRSFQDNLHNRKKH [ZMAT5]	3.03 ± 0.33	3.42 ± 0.34
LLTGETEADPEMIKRAEDYGPVEV [CLPTM1]	5.02 ± 0.3	5.14 ± 0.11
GKDCFLELAPDFVGDILWEHLEIL [ETS1]	2.42 ± 0.54	2.05 ± 0.39

Sequence	protein stability index (treatment: DMSO)	protein stability index (treatment: MLN4924 1 uM, 8 h)
YNIKLKWTNQQKLYSRTGDIVEFV [CFHR2]		2.46 ± 0.41
SSDSANTTIEDEDAKARKQEIIKT [CAMK2B]	5.44 ± 0.21	5.42 ± 0.082
SNKSLVEALGLEAEGAVPETQTLT [RHOBTB1]	5.09 ± 0.26	5.16 ± 0.36
SADMDESDEDDEEERRRRVFDVPI [FBXO3]	5.32 ± 0.18	5.35 ± 0.11
SEIKNYNFQQPGFTSGTGHFTAMV [GLIPR2]	2.41 ± 0.58	2.77 ± 0.16
ADGAWVVKMFYSFQDKRNLYLIME [STK38L]	3.11 ± 1	2.99 ± 0.79
NGNRRRRKLRKTVNGDGSRENGNN [PHTF1]	4.93 ± 0.43	5.12 ± 0.19
RFKDKSSEEAVREVHRLIEGKAPI [TPPP]	4.6 ± 0.15	4.58 ± 0.18
CCHRSQKGFPGCKLGLHDNHWVPA [FBXO34]	2.2 ± 0.39	2.16 ± 0.34
TPKDKRVSNTPLRTVDGSPMMKAA [PALM]	4.33 ± 0.3	4.39 ± 0.24
LLFVRGAGNCPECGTPLRKSNFRV [MNAT1]	2.2 ± 0.19	2.6 ± 0.32
RLYRLKLEELTKLQNNCTSSITRQ [TMEM120A]	2.62 ± 0.092	2.81 ± 0.3
HGQAGQRQDPRPHGPQLPTGIEGN [ZBED2]	4.91 ± 0.13	5.11 ± 0.15
SEGKVLTLAALLLNRSESDIRYLL [FEM1B]	2.43 ± 0.56	2.38 ± 0.24
PPLRVIVKDALFCSCLSDILRFIY [RHOBTB3]	2.78 ± 0.16	2.84 ± 0.27
FKRRRVRRRRMETIVFLDKEVFAS [PCMTD2]	2.62 ± 0.16	2.86 ± 0.33
